Laboratory results reported in patent publication US10711248B2, “Device and method for standardizing myoblast differentiation into myotubes” (Cytoo, priority 2013, dated 2020).

Test system: acetylcholine receptors (AChR) clustering in myotubes derived from human primary cells
Experiment: Acetylcholine receptor clustering in primary human myotubes cultured on micropatterns (TMR-Bungarotoxin probe)
Assay type: cell-based
Details: FIG. 8A/8B
Description: FIG. 8B is a quantification of the regulation of cluster formation through agrin and Wnt signaling;
C2C12 mouse or primary human myoblasts (HSMM, Lonza) were cultured on fibronectin coated micropatterns within growth medium (DMEM, 20% FBS, 0.5% P/S, or Lonza SkGM™-2 cell culture Kit respectively) during 24 hours. Then both cell types were cultured within differentiation medium (DMEM/F12, 2% Horse Serum, 0.5% P/S) during 5 to 11 days for HSMM and C2C12 respectively. Differentiation medium were changed every 2 days. Cells were fixed and an immunostaining was realized against myosin heavy chain (in green in a color image—in light grey in the appended black&white figures), actin (in red in a color image—in medium grey in the appended black&white figures) and nuclei (in blue in a color image—in dark grey in the appended black&white figures). Images were acquired using an epifluorescence microscope (DMI6000, Leica).

Molecule	Effect on AChR clustering / cluster formation
agrin: treatment inducing acetylcholine receptor clustering in myotubes [reference compound]	large clustering
Wnt4: Wnt molecule known to stimulate AChR clustering in mice (protein, UniProt P56705 23-351, looked up) Protein Wnt-4: SNWLYLAKLSSVGSISEEETCEKLKGLIQRQVQMCKRNLEVMDSVRRGAQLAIEECQYQFRNRRWNCSTLDSLPVFGKVVTQGTREAAFVYAISSAGVAFAVTRACSSGELEKCGCDRTVHGVSPQGFQWSGCSDNIAYGVAFSQSFVDVRERSKGASSSRALMNLHNNEAGRKAILTHMRVECKCHGVSGSCEVKTCWRAVPPFRQVGHALKEKFDGATEVEPRRVGSSRALVPRNAQFKPHTDEDLVYLEPSPDFCEQDMRSGVLGTRGRTCNKTSKAIDGCELLCCGRGFHTAQVELAERCSCKFHWCCFVKCRQCQRLVELHTCR	stimulate
Wnt3a: Wnt molecule known to inhibit AChR clustering in mice (protein, UniProt P56704 19-352, looked up) Protein Wnt-3a: SYPIWWSLAVGPQYSSLGSQPILCASIPGLVPKQLRFCRNYVEIMPSVAEGIKIGIQECQHQFRGRRWNCTTVHDSLAIFGPVLDKATRESAFVHAIASAGVAFAVTRSCAEGTAAICGCSSRHQGSPGKGWKWGGCSEDIEFGGMVSREFADARENRPDARSAMNRHNNEAGRQAIASHMHLKCKCHGLSGSCEVKTCWWSQPDFRAIGDFLKDKYDSASEMVVEKHRESRGWVETLRPRYTYFKVPTERDLVYYEASPNFCEPNPETGSFGTRDRTCNVSSHGIDGCDLLCCGRGHNARAERRREKCRCVFHWCCYVSCQECTRVYDVHTCK	inhibit
